The nature of the series: soluble on expression in E. coli; label from the status in PepcDB or PDB records.
On to “MSLSFKDAVRKRPGMYFGDIDHNAVNHVIYELVANVVDLFLAGRATTLKVDVSECEIIVIDDGPGFPFPVEDSAHNLVERYLTHHHDKPTADDHAPHIHVLGGGLGLAAVNAVSEKLTIESSNGAWRWRQVFGKGDVLAPLESFRYDGPSGSSIKFTLDPSVFHNRLPDFFQLRKAMFELAHLYSGLIVEFDGERYVSKQGLMELAYLMWSGEGHHHHHH”, for which the “soluble on expression in E. coli” value is listed as “not soluble”. Turning to “MSLSGEPYNFEYTFSKSHDIGVSLTIGKRNYMEDEVLIAGNIKEGIDLVGIFDGHNGSDAAKLAAKLFKEEIKHLEEEFDWITLFEKVHSTIIKSTESGTTATLALIYSNKITLVHCGDSTAFALKKRKLKKLTHDQNTSSLEEVSSIKKNGGVVEFNGGILRVNGQISVTRSLGDKKFHPPLTCIPEVIELESDDITSLVLTSDGISSVLQLDEIEAVMNSEMNVEEKSSTLRNQSFIREGKDNMSVIVVSFNEGHHHHHH”, the “soluble on expression in E. coli” value was “soluble”. For the sequence “MSLSGFNYEKNQPHQMRAVSAVLGVFDGATPKYRTADENPELLFAAKQYANNILKVQSQNGIDGRFPDRSDDQNILDISMETGTGKTYTYTQTMFELHRWLGVFKFIVVVPTLSIKAGTQQFLQSKALAEHFEQDFGGDYEGVRLKTYVVESAKKNKGKKSNAPITIEQFVKAENKKEIHVLLINAGMVNSSSMNDTGDKALKDLFDNPVDALAAVRPFMIVDEPHKFPTRDSAKTWGNIKRLKPQYILRYGATFNDEYYNLLYRLTAVDAFNDGLVKGVRVFQEEMQGGMDAAVKLVSSDGKEAKFELNEKDKKQTFKLAKGEDLAQIHPAISDLKIDKMNKTVVVLSNGLELKTGAVINPYSYSQTVQDAMMQRAVAEHFKLERALLAERAPQPKIKPLTLFFIDDIAGYRSGNELSGSLKDKFESWIRAEAARRLKTESDPFYRDYLQKTLDDVSACHGGYFSKDNTDSDDRIEQEINEILHDKEKLLSLDNPRRFIFSKWTLREGWDNPNVFQICKLRSSGSTTSKLQEVGRGLRLPVNELMARVRDVPYKLNYFVDSSEKDFVKQLVGEINDNSFQEEISKKFTEELKQKILQKYPDIKPLVLVNQLFLDGIIDDNENFAEDGYDKLKAAYPEAFPKGLDKGKVSNAKDEGKDTIIMREGKYEELKALWELIHHKAVLQYKIKDEAEFADLFTAYLHENAAKFPQAGIRTAVNEAYINNGLMLSRRIDSFEDEDFIRFNTMTYREFLEKLAQTAKIRMQTLHQAFYCIRNELNIGDFLNMQTIAQIKNGFNRFLLHHSFHKFELDYRLVGSKIHPTKFTNKDGKPRAVKKADLGRFEDTEHRPAAGYLFGEIFYDSDIEHENVANNQIEGVIVFTKIPRNSIKIPVAGGGTYSPDFAYIVKTKSGEILNFVIEAKGTDGAEDLRKSEERKIKHAEKLFAEISKEIKVVFKTQFDGERIAELIGQNMPAGGHSENGREGHHHHHH”, the “soluble on expression in E. coli” value is on record as “not soluble”. The result for “MSLSGIFNWSLDVFADIYNTLKFESNIDLDTIDFTSIKNDLANVLITPVPLDQSRSKLGDASKPVALPSGDEVKLNQASIEITGVLSNELDLDELNTAELLYNASDLSYKKGTSIGDSARLAYYLRAHYILNIVGYLVSHKRLDIITNNNQVLFDNILKSFSKIYTLSGKLNDMIDKQKVTGDINNLAFINCINYSRSQLFNAHELLGQVVFGLADNYYESYGTLNNYKSLVEFILKNISDEDVFVIHFLPSTLQLFKKLLQLGEESLVDQFYKTITSSILKDYEANNFSKSEDIDLSKSKLSGFEIVTSFIFLTEFIPWCKQLSSRTAKYDFKDDILKYMEFLISYGVMERLLSYCSETANAKTQQVYDWSNMYDFRALLQKNFPRLTPAKFHYPGNQELLNAVRPGYENVSKLIDISFLTLDPSLNETLVSPFFQSFFSVFISNAAVVMTSLRDSEEDFVLSSLNESDEGHHHHHH” reads “soluble”.

“MSLSGKDLGRAIEQAINKKIASGSVKSKAEVARHFKVQPPSIYDWIKKGSISKDKLPELWRFFSDVVGPEHWGLNEYPIPTPTNSDTKSELLDINNLYQAASDEIRAIVAFLLSGNATEPDWVDHDVRAYIAAMEMKVGKYLKALESERKSQNITKTGTEGHHHHHH”: the “soluble on expression in E. coli” value is “soluble”.

Regarding “MSLSGKPITDQQIRLYVNERKQGQTQLAASAKSGLSERSGRRIDSGELNTEPTPKRQWRTRKDPLAEVWSSVLVPMLEANPELLPLTLFEYLHDNYPNQYDNTVLRTLQRRVKAWKVKHGPAKEVMFRQTKVPGRLGLSDFTLLKGVTITILGQVFCHLLYHYRLAFSGWTYAKVICGGESYTALSTGLQNALWRSGGAPLEHRTDSLSAAFNNLAEKEQMTVRYDALCHHYQLKGSRNNPGKSHENGTIEAAHGHLKRRMTQALLLRGDTDFTSLEAYQAFVDGIVTKINQQCRTRFEQERPLLQTLPKRRTHDYAEHSVLISSSSSFDLKRVTYTVPSRFIGERLYVQLYDERLDLFSGHEQIMSLPRVYATTTQRGRSVDYRHVIDSLVKKPGAFRYSQLRDDLLPTPDYHRIWQYVDGTLNPHDACRYIVRLLHLAATAQCQDSLGRYVLKSIEGGELPSNLQCNKRFSTDTAVIPLITAKQHLLADYDQLLCVEVQHGEGHHHHHH”, the “soluble on expression in E. coli” value is “not soluble”. “MSLSILFKNAALLDPLQADLMDAHHVLVEDNLIKEVSDRPLQVTADRTIDLRGKTLMPGLIDLHVHAVAVELNLAQQVHMPNVLVTLRSTLLLRGMLRRGFTTVRDAGGAGHALKQAIETGLTDGPRLFVSGRALSQTGGHGDMRARSDYLASDAPCPCCVRVGALARVADGVDGVRRAAREELQMGADQIKIMASGGVASPTDPVGAFGYSEDEIRAIVEEARGRQTYVLAHAYTAAAIARAVRCGVRTIEHGNLVDEPTARLMAEKGAYVVPTLVTYEALANEGAQYGLPPESVAKIADVRDAGLRSLAIYRDAGVKMGFGSDLLGPSQRLQSDEFRIRAEILGPRAVIASATVIGAEVLGMEGKLGRIAPEALADLLVVDGNPLRDVACLLGQGEHIPLVLKAGKVQFDRLNAEGHHHHHH”: the “soluble on expression in E. coli” value was “not soluble”. With “MSLSITRKDFDHINLEYSGLEKVNKAVAAGNYDDAAKALLAYYREKSKAREPDFSNAEKPADIRQPIDKVTREMADKALVHQFQPHKGYGYFDYGKDINWQMWPVKDNEVRWQLHRVKWWQAMALVYHATGDEKYAREWVYQYSDWARKNPLGLSQDNDKFVWRPLEVSDRVQSLPPTFSLFVNSPAFTPAFLMEFLNSYHQQADYLSTHYAEQGNHRLFEAQRNLFAGVSFPEFKDSPRWRQTGISVLNTEIKKQVYADGMQFELSPIYHVAAIDIFLKAYGSAKRVNLEKEFPQSYVQTVENMIMALISISLPDYNTPMFGDSWITDKNFRMAQFASWARVFPANQAIKYFATDGKQGKAPNFLSKALSNAGFYTFRSGWDKNATVMVLKASPPGEFHAQPDNGTFELFIKGRNFTPDAGVFVYSGDEAIMKLRNWYRQTRIHSTLTLDNQNMVITKARQNKWETGNNLDVLTYTNPSYPNLDHQRSVLFINKKYFLVIDRAIGEATGNLGVHWQLKEDSNPVFDKTKNRVYTTYRDGNNLMIQSLNADRTSLNEEEGKVSYVYNKELKRPAFVFEKPKKNAGTQNFVSIVYPYDGQKAPEISIRENKGNDFEKGKLNLTLTINGKQQLVLVPEGHHHHHH” the entry was “soluble”; with “MSLSKNWLFLGKGFRWRPSHTQKLHQIKQVKNEKFMQRSYCYQLTRRFCQSHEHTKLAKWLNINSKLNPFRPDPPVGGSPFLHGVGDEDKPVYIPQDVRVGHTFVVGTTRVGKTRLASILINQDIRNGDAVIVVDPKGDQDLVRDMVAACKVSGRTEDFKIVHLGFPEQSAQYNPLKKFDQISEVATRITDAISAEGEGKQFAAFAWKYVNIVAICLEEMNQPITYQTIAFYISRLEQLLMSYADNILPNHYLNYHQEIDDIIEEHDSKIGKNNKTKSPMERHQAVIQYIKDHINKTIKSNNAEALHDQILIDLYDAAIMDKHYYDKITASVGPVLSEINKSNASKILSSKAQPGDIELMDVIKNKKVLYIGLDSLTNPNIAQAVGKAFLSDLVSTAGKIYKEPNARYTLNLHCDELSEIIQDSFVKILNKAGGAGFQVTAYAQTIQDMEVALGSRAKAEVSEGNFNTLIMLRVKNEETANLLVKVLPQVGVVGHTQVSMVNDTPHGDDGVYFNTTNEDRVQTSNAPMIGVDDIISLPKGQAFVLASGGEIWKIRIPLPMNSNEGHHHHHH”, “not soluble”.

With “MSLSLFQAILTSMEPREGGEKVFPSDLMIARKTKTGIIYPVFLSDDNIDYARAVISVFTLNTGKKKEVIENNLKEIELKFQNAKIIRALSLIMMRKSIFVPPVNIDAQALREYIFSMARIPPINSNEREMILKSAAESFNIDYIDIENAIYADKDSESILERPYNTDEGKLIREYNLEQLETVLLKCTELNISNASDWHFVITMIRRLGLLYEIKNDGDKIISVNITGPMALFENTERYGSKFSMLIRSIYKMNEWSLTASIKVKDFSGDKNIYTLKLSDSAKFFLPPGTIKPEHLPEHVSRGYPIIINNKFYFPDYIIDLDERIYVSINSDEKPDNLNWINVYILSDRDKKKPGSIAFYNDMDWDELFNLISKKRNLSSEIDNYSIDEIKKKLDQIYPDSQGMIDYLESQGLIPLRVLPELGYKIKWKNLDIIIEKAEGHHHHHH”, the “soluble on expression in E. coli” value was “not soluble”. The result for “MSLSNFKSISLTYRKAPLEIRERVALNEAECKSLMLRIKDFTDTAELLILSTCNRTEIYYTSNEDYSNDIIKLLGVEKNITGLIQQKEYFEIYNEQADAVLHLFEVGIGLDSQVVGDMQIVNQVKYAYQWSADLNLAGPFLHRLMHTIFFTNKRVVQETAFRDGAASVSYATVELSEELLSATPNANILIVGLGEIGADVCRNFKANTSFKNITLTNRSPLKSEALAAECGIEHVPFETLWEAVAKADLVISSVAKEEPLFTKEEIQKLSILSHKYFIDLSVPRSVDARAEELPGIIVYDIDHIQNRSNEALENRLNAIPHVRKIILDSIVEFNEWSKEMEVSPTINKLKNALEQIRKEELSRFVKQLSDEEAKKVDEITKSIMQKIIKLPVLQLKAACKRGEAETLIDVLNDLFNLDKQPEQIREGHHHHHH” reads “soluble”; that for “MSLSPEDAIVIILSDDDTIRSALDANIHLQGRRSHLCKSRTDFLISPEADLVGCVVLDARLPDLTASDLTHLICAHAIRCPVIVLTGHGGQAMTVNATKFHVSFIPQPFDLNALAEKIHAAIRTTMEIGRLEGNYRTLTPREREVMKFVAEGLLNKQVAFKLNISEITVKAHRGQVMRKMNARTLPHLVNMAAKLDIGVAFLHEGHHHHHH”, “soluble”.

As to “MSLSRCLPLGQNARVIIIPARLAHAASTQAAAATDDAPNFFQKLAHRFQGVPLKGEAHAPKSMFEDCNKEWSAPEPLPAIPKDFKEHPDRDLVNYPYPARPMYPPKSRLLMMPDSWFTPFQKVTGVSGPYLFFGGLFAFLVNKELWVFEEQGHMTVGWILFYLLVTRTAGYKIDQGLYNGYQERVNFFKGLIQEDLKEAVEFKKTSAKQTESLNSIKESYPTALKESMALQLEATYRKNVQSVATELKRRIDYLKETEESKARVEREQLLKLINSEVDKEFSDRSFKDKYLQNAIQQLKGLNVQL”, the “soluble on expression in E. coli” value is “not soluble”.

Take “MSLSRRPAYARLLDRAVRILAVRDHSEQELRRKLAAPIMGKNGPEEIDATAEDYERVIAWCHEHGYLDDSRFVARFIASRSRKGYGPARIRQELNQKGISREATEKAMRECDIDWCALARDQATRKYGEPLPTVFSEKVKIQRFLLYRGYLMEDIQDIWRNFADEGHHHHHH”: the “soluble on expression in E. coli” value is “soluble”. Turning to “MSLSRSFDTAPLGGRLNLTVADAEVFRNFLPVGQTVKGSLNAAVTLGGSIADPHLGGSINGDKLYYRNQTQGIILDNGSLRSHIAGRKWVIDSLKFRHEGTAELSGTVGMENSGPDVDIGAVFDKYRILSRPNRRLTVSGNTRLRYSPQKGISVTGMIKTDQGLFGSQKSSMPSVGDDVVVLGEVKKEAAAPLPVNMNLTLDLNDGIRFAGYGADVTIGGKLTLTAQSGGSVRGVGTVRVIKGRYKAYGQDLDITKGTVSFVGPLNDPNLNIRAERRLSPVGAGVEILGSLNSPRITLTANEPMSEKDKLSWLILNRAGSGSSGDNAALSAAAGALLAGQINDRIGLVDDLGFTSKRSRNAQTGELNPAEQVLTVGKQLTGKLYIGYEYSISSAEQSVKLIYRLTRAIQAVARIGSRSSGGELTYTIRFDRFSGSDEGHHHHHH”, the “soluble on expression in E. coli” value is “not soluble”.

Source of the values: the DeepSol protein solubility set.
